Values of other authors in PMC11111649.

Molecular target: Angiotensin II (Homo sapiens) (UniProt P01019)
Sequence of UniProt P01019 (P01019 whole entry, looked up): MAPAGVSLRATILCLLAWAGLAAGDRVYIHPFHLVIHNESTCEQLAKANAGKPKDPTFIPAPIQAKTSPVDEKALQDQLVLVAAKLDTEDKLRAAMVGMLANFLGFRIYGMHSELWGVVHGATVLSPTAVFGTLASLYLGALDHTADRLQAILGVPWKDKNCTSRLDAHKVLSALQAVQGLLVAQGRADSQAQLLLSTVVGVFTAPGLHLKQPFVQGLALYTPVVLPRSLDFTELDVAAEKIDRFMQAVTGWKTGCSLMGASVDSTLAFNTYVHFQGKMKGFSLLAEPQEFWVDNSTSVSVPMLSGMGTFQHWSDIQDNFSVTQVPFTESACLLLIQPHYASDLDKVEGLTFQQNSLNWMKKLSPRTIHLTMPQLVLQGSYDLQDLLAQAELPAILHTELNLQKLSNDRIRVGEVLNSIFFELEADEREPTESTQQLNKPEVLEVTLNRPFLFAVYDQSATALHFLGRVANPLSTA

## AT1R (from UniProt P30556)
  Kd: 1 nM
